Laboratory results taken from paper PMC9482650, “Quantitative fragmentomics allow affinity mapping of interactomes” (Nature Communications, 2022).

T1: APBA2_1, Q99767
T1 sequence (Q99767 563-664, limits assumed, looked up): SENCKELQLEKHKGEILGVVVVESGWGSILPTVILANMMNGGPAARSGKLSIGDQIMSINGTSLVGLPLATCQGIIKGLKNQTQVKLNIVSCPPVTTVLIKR

T2: SYNJ2BP, P57105
T2 sequence (P57105 8-110, limits assumed, looked up): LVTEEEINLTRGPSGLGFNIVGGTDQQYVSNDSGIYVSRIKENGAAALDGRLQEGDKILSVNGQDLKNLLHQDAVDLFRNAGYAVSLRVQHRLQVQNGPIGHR

T3: SIPA1L2, Q9P2F8
T3 sequence (Q9P2F8 945-1036, limits assumed, looked up): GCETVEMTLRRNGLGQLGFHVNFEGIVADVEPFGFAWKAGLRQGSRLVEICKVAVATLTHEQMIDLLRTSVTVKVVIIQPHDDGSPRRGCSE

T4: APBA3_1, O96018
T4 sequence (O96018 389-490, limits assumed, looked up): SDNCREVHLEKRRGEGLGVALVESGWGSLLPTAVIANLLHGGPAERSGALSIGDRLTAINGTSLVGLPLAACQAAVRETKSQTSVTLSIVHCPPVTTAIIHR

T5: LIN7B, Q9HAP6
T5 sequence (Q9HAP6 88-185, limits assumed, looked up): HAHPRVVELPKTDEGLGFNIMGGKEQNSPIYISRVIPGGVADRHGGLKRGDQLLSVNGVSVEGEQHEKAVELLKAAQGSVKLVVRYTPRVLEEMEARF

T6: HTRA4, P83105
T6 sequence (P83105 378-476, limits assumed, looked up): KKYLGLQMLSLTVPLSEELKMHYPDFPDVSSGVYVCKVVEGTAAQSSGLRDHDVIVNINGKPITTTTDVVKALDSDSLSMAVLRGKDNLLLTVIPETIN

T7: NHERF3_4, Q5T2W1
T7 sequence (Q5T2W1 373-468, limits assumed, looked up): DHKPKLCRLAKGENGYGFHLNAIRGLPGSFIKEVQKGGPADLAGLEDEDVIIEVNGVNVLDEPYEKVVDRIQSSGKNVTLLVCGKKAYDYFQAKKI

T8: MPDZ_10, O75970
T8 sequence (O75970 1624-1722, limits assumed, looked up): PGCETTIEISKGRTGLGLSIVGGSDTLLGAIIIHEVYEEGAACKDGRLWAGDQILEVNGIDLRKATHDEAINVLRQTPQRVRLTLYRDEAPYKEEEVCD

T9: DFNB31_3, Q9P202
T9 sequence (Q9P202 811-907, limits assumed, looked up): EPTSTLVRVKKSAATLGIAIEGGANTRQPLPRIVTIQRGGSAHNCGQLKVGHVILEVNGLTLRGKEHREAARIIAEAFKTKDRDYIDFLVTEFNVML

T10: DVL3, Q92997
T10 sequence (Q92997 244-331, limits assumed, looked up): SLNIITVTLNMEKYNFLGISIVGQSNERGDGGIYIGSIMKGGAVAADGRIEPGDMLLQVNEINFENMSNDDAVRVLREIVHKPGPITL

T11: APBA1_1, Q02410
T11 sequence (Q02410 651-752, limits assumed, looked up): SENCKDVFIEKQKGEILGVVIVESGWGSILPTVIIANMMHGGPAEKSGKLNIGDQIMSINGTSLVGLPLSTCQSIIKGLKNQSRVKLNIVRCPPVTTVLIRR

T12: APBA2_2, Q99767
T12 sequence (Q99767 654-744, limits assumed, looked up): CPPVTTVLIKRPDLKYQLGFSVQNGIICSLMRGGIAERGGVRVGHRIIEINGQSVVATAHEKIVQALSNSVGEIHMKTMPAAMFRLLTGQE

T13: PDZD7_3, Q9H5P4
T13 sequence (Q9H5P4 857-944, limits assumed, looked up): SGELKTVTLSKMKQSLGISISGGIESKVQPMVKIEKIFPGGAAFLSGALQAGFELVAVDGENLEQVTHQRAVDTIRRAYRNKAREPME


Legend:
Assay in all cases: holdup assay
Parameters in all cases: key: below the threshold = too weak to quantify, mostly under pKd 3.1 to 4
Conditions in all cases: plain residues with an end cap or a label only (N-terminal biotin on a linker: ado-ado)
APBA2_1, Q99767 = molecular target: T1, APBA2_1, Q99767
GRIP2_7, Q9C0E4 = molecular target: GRIP2_7, Q9C0E4
SYNJ2BP, P57105 = molecular target: T2, SYNJ2BP, P57105
MAST2, Q6P0Q8 = molecular target: MAST2, Q6P0Q8
TJP2_1, Q9UDY2 = molecular target: TJP2_1, Q9UDY2
Inadl_2, Q8NI35 = molecular target: Inadl_2, Q8NI35
SIPA1L2, Q9P2F8 = molecular target: T3, SIPA1L2, Q9P2F8
APBA3_1, O96018 = molecular target: T4, APBA3_1, O96018
PDLIM1, O00151 = molecular target: PDLIM1, O00151
LIN7B, Q9HAP6 = molecular target: T5, LIN7B, Q9HAP6
HTRA4, P83105 = molecular target: T6, HTRA4, P83105
NHERF3_4, Q5T2W1 = molecular target: T7, NHERF3_4, Q5T2W1
MPDZ_10, O75970 = molecular target: T8, MPDZ_10, O75970
DFNB31_3, Q9P202 = molecular target: T9, DFNB31_3, Q9P202
MAGI2_4, Q86UL8 = molecular target: MAGI2_4, Q86UL8
GRASP, Q7Z6J2 = molecular target: GRASP, Q7Z6J2
DVL3, Q92997 = molecular target: T10, DVL3, Q92997
MAGI3_2, Q5TCQ9 = molecular target: MAGI3_2, Q5TCQ9
GRIP2_3, Q9C0E4 = molecular target: GRIP2_3, Q9C0E4
FRMPD4, Q14CM0 = molecular target: FRMPD4, Q14CM0
APBA1_1, Q02410 = molecular target: T11, APBA1_1, Q02410
SNX27, Q96L92 = molecular target: SNX27, Q96L92
APBA2_2, Q99767 = molecular target: T12, APBA2_2, Q99767
PDZD7_3, Q9H5P4 = molecular target: T13, PDZD7_3, Q9H5P4

GRIP2_7, Q9C0E4, sequence (Q9C0E4 934-1023): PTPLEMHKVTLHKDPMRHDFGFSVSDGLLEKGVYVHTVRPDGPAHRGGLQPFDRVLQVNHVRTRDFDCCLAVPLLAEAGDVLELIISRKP
MAGI2_4, Q86UL8, sequence (Q86UL8 772-865): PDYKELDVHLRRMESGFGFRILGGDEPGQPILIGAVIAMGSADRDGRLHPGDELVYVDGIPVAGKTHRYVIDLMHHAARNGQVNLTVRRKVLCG
PDLIM1, O00151, sequence (O00151 1-87): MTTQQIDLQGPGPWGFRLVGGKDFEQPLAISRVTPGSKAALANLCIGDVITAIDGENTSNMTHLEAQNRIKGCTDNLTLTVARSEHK
MAST2, Q6P0Q8, sequence (Q6P0Q8 1099-1202): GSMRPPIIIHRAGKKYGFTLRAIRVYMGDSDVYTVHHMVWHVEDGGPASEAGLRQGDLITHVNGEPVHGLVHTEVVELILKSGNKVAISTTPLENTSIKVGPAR
GRIP2_3, Q9C0E4, sequence (Q9C0E4 238-339): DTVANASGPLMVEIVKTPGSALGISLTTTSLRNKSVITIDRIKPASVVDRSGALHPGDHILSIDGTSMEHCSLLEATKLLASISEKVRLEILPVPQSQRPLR
FRMPD4, Q14CM0, sequence (Q14CM0 67-160): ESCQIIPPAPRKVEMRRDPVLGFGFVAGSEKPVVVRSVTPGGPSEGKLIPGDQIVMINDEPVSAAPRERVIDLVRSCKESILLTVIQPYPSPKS
MAGI3_2, Q5TCQ9, sequence (Q5TCQ9 398-503): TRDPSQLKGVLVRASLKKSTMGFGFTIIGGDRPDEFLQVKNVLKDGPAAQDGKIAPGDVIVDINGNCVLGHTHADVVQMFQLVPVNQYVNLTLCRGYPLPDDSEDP
GRASP, Q7Z6J2, sequence (Q7Z6J2 96-193): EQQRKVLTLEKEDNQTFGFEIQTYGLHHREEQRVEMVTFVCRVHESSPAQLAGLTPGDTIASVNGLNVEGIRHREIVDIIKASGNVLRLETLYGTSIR
TJP2_1, Q9UDY2, sequence (Q9UDY2 24-128): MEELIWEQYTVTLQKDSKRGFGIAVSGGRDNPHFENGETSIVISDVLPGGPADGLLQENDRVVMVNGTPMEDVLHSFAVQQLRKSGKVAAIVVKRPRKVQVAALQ
Inadl_2, Q8NI35, sequence (Q8NI35 238-335): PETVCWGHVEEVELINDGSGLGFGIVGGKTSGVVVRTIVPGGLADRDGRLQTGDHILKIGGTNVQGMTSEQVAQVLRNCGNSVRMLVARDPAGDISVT

Binder | pKd (APBA2_1, Q99767) | pKd (GRIP2_7, Q9C0E4) | pKd (SYNJ2BP, P57105) | pKd (MAST2, Q6P0Q8) | pKd (TJP2_1, Q9UDY2) | pKd (Inadl_2, Q8NI35) | pKd (SIPA1L2, Q9P2F8) | pKd (APBA3_1, O96018) | pKd (PDLIM1, O00151) | pKd (LIN7B, Q9HAP6) | pKd (HTRA4, P83105) | pKd (NHERF3_4, Q5T2W1) | pKd (MPDZ_10, O75970) | pKd (DFNB31_3, Q9P202) | pKd (MAGI2_4, Q86UL8) | pKd (GRASP, Q7Z6J2) | pKd (DVL3, Q92997) | pKd (MAGI3_2, Q5TCQ9) | pKd (GRIP2_3, Q9C0E4) | pKd (FRMPD4, Q14CM0) | further results
QHKTQLQTLI [BPIFA2, Q96DR5] | below the threshold | below the threshold | 4.12 | 4.92 | 3.66 | below the threshold | below the threshold | below the threshold | below the threshold | below the threshold | below the threshold | 3.48 | below the threshold | 4.8 | 4.05 | 4.04 | below the threshold | 4.54 | below the threshold | below the threshold | pKd (APBA1_1, Q02410): below the threshold; pKd (SNX27, Q96L92): 3.83; pKd (APBA2_2, Q99767): below the threshold; pKd (PDZD7_3, Q9H5P4): 5.15
PEYLGLDVPV [ERBB2, P04626] | below the threshold | below the threshold | below the threshold | 4.21 | below the threshold | below the threshold | below the threshold | below the threshold | below the threshold | below the threshold | 3.98 | 3.59 | below the threshold | below the threshold | below the threshold | below the threshold | below the threshold | below the threshold | below the threshold | 4.39 | pKd (APBA1_1, Q02410): below the threshold; pKd (SNX27, Q96L92): 3.94; pKd (APBA2_2, Q99767): below the threshold; pKd (PDZD7_3, Q9H5P4): below the threshold
DDPSTAETVL [ABCA7, Q8IZY2] | below the threshold | below the threshold | 4.16 | 5.64 | below the threshold | below the threshold | below the threshold | below the threshold | below the threshold | 3.89 | below the threshold | below the threshold | below the threshold | 3.63 | below the threshold | below the threshold | below the threshold | below the threshold | below the threshold | 4.1 | pKd (APBA1_1, Q02410): below the threshold; pKd (SNX27, Q96L92): 5.6; pKd (APBA2_2, Q99767): below the threshold; pKd (PDZD7_3, Q9H5P4): 4.98
HLRARKSEWV [GJD4, Q96KN9] | below the threshold | 4.04 | 4.2 | below the threshold | 6.04 | below the threshold | below the threshold | below the threshold | below the threshold | 3.81 | 4.51 | below the threshold | below the threshold | below the threshold | 3.71 | 4.01 | 3.79 | 4.04 | below the threshold | below the threshold | pKd (APBA1_1, Q02410): below the threshold; pKd (SNX27, Q96L92): 4.38; pKd (APBA2_2, Q99767): below the threshold; pKd (PDZD7_3, Q9H5P4): below the threshold

More lines, main results first:

pKd (APBA2_1, Q99767) | pKd (GRIP2_7, Q9C0E4) | pKd (SYNJ2BP, P57105) | pKd (MAST2, Q6P0Q8) | pKd (TJP2_1, Q9UDY2) | pKd (Inadl_2, Q8NI35) | pKd (SIPA1L2, Q9P2F8) | pKd (APBA3_1, O96018) | pKd (PDLIM1, O00151) | pKd (LIN7B, Q9HAP6) | pKd (HTRA4, P83105) | pKd (NHERF3_4, Q5T2W1) | pKd (MPDZ_10, O75970) | pKd (DFNB31_3, Q9P202) | pKd (MAGI2_4, Q86UL8) | pKd (GRASP, Q7Z6J2) | pKd (DVL3, Q92997) | pKd (MAGI3_2, Q5TCQ9) | pKd (GRIP2_3, Q9C0E4) | pKd (FRMPD4, Q14CM0) | Binder | further results
below the threshold | 4.35 | below the threshold | 3.74 | below the threshold | 3.65 | below the threshold | below the threshold | below the threshold | 3.64 | 4.14 | below the threshold | below the threshold | below the threshold | below the threshold | 3.85 | 3.85 | below the threshold | below the threshold | 4.02 | VDSTVKVWTC [TRAF7, Q6Q0C0] | pKd (APBA1_1, Q02410): below the threshold; pKd (SNX27, Q96L92): below the threshold; pKd (APBA2_2, Q99767): below the threshold; pKd (PDZD7_3, Q9H5P4): below the threshold
below the threshold | below the threshold | 4.51 | 5.11 | 4.46 | below the threshold | below the threshold | below the threshold | below the threshold | 3.73 | below the threshold | 3.73 | 3.57 | below the threshold | 4.68 | 4.41 | below the threshold | 5.42 | below the threshold | below the threshold | AKPSRISTVV [IQSEC2, Q5JU85] | pKd (APBA1_1, Q02410): below the threshold; pKd (SNX27, Q96L92): 3.98; pKd (APBA2_2, Q99767): below the threshold; pKd (PDZD7_3, Q9H5P4): 5.21
